Measurements reported in article PMC12758336.

Experiments:
NRBF2_5A = NRBF2_5A (UniProt Q8VCQ3); test: co-IP; competitive co-IP: FLAG-tagged bait and GFP-tagged competitor transiently over-expressed in HEK293T; anti-FLAG M2 magnetic beads; immunoblot for endogenous PIK3R4/VPS15 and PIK3C3/VPS34; Figure 6C also after 100 nM rapamycin (2 h) or EBSS medium (2 h)
NRBF2_3A = NRBF2_3A (UniProt Q8VCQ3); test: as above

“endogenous PIK3R4/VPS15 (from UniProt Q99570 1-1358) (natural protein)” was tested, and the endogenous PIK3R4/VPS15 pulled down, against wild type (% less than wild type) (NRBF2_5A) was 50 and the endogenous PIK3R4/VPS15 pulled down, against wild type (% less than wild type) (NRBF2_3A) was 50.
